Data published in the supplement of paper PMC10567573.

B1: TNNI2 (parent)
chain: DWRKNIEEKSGMEGRKKMFESES

Variants of: B1
Assay: protein stability index of a GFP-peptide fusion (GPS, HEK-293T) (PSI 1-6); higher = more stable
Conditions: c terminus: native
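Further: lentivirally expressed fusions sorted by FACS into six bins by GFP to DsRed ratio, PSI derived from sequencing read proportions per bin multiplied by bin number.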

Compared with DWRKNIEGKSGMEGRKKMFESES, DWRKNIERKSGMEGRKKMFESES is lower in protein stability index: 2.06 for the first, 1.84 for the second.

Compared with DWRKNIENKSGMEGRKKMFESES, DWRKNIEAKSGMEGRKKMFESES is lower in protein stability index: 3.61 for the first, 2.2 for the second.

First: DWRKNIEPKSGMEGRKKMFESES
Second: DWRKNIEEKSMMEGRKKMFESES
The protein stability index of the first is higher: 3.03 for the first, 1.9 for the second.

Compared with DWRKNIEEKSEMEGRKKMFESES, DWRKNIEEKSTMEGRKKMFESES is lower in protein stability index: 3.21 for the first, 1.58 for the second.

Going from DWRKNIEEKSSMEGRKKMFESES to DWRKNIEEKSHMEGRKKMFESES, the protein stability index falls from 2.6 to 1.76.

Going from DWRKNIEEKSKMEGRKKMFESES to DWRKNIEEKSLMEGRKKMFESES, the protein stability index falls from 3.5 to 2.77.

First: DWRKNIEEKSQMEGRKKMFESES
Second: DWRKNIEEKSCMEGRKKMFESES
The protein stability index of the first is lower: 1.18 for the first, 1.52 for the second.

Compared with DWRKNIEEKSVMEGRKKMFESES, DWRKNIEEKSNMEGRKKMFESES is lower in protein stability index: 2 for the first, 1.94 for the second.

Compared with DWRKNIEEKSRMEGRKKMFESES, DWRKNIEEKSAMEGRKKMFESES is higher in protein stability index: 2.35 for the first, 2.57 for the second.

Compared with DWRKNIEEKSYMEGRKKMFESES, DWRKNIEEKSDMEGRKKMFESES is higher in protein stability index: 1.45 for the first, 1.99 for the second.

Going from DWRHNIEEKSGMEGRKKMFESES to DWRGNIEEKSGMEGRKKMFESES, the protein stability index rises from 2.62 to 3.03.

Going from DWRLNIEEKSGMEGRKKMFESES to DWRENIEEKSGMEGRKKMFESES, the protein stability index falls from 2.82 to 2.59.

Going from DWRINIEEKSGMEGRKKMFESES to DWRFNIEEKSGMEGRKKMFESES, the protein stability index rises from 2.13 to 2.37.

Compared with DWRMNIEEKSGMEGRKKMFESES, DWRANIEEKSGMEGRKKMFESES is higher in protein stability index: 3.39 for the first, 3.61 for the second.

Compared with DWRWNIEEKSGMEGRKKMFESES, DWRCNIEEKSGMEGRKKMFESES is higher in protein stability index: 2.13 for the first, 2.32 for the second.

First: DWRSNIEEKSGMEGRKKMFESES
Second: DWRVNIEEKSGMEGRKKMFESES
The protein stability index of the first is lower: 3.03 for the first, 3.15 for the second.

Compared with DWRYNIEEKSGMEGRKKMFESES, DWRDNIEEKSGMEGRKKMFESES is higher in protein stability index: 2.56 for the first, 3.23 for the second.

First: DWRQNIEEKSGMEGRKKMFESES
Second: DWRTNIEEKSGMEGRKKMFESES
The protein stability index of the first is higher: 3.21 for the first, 2.98 for the second.

Compared with DWRPNIEEKSGMEGRKKMFESES, DWRNNIEEKSGMEGRKKMFESES is higher in protein stability index: 2.61 for the first, 3.23 for the second.

First: MWRKNIEEKSGMEGRKKMFESES
Second: VWRKNIEEKSGMEGRKKMFESES
The protein stability index of the first is lower: 1.57 for the first, 2.37 for the second.

Going from QWRKNIEEKSGMEGRKKMFESES to KWRKNIEEKSGMEGRKKMFESES, the protein stability index falls from 2.65 to 2.01.

Compared with PWRKNIEEKSGMEGRKKMFESES, LWRKNIEEKSGMEGRKKMFESES is lower in protein stability index: 2.57 for the first, 1.9 for the second.

First: RWRKNIEEKSGMEGRKKMFESES
Second: SWRKNIEEKSGMEGRKKMFESES
The protein stability index of the first is higher: 2.79 for the first, 1.79 for the second.

Going from YWRKNIEEKSGMEGRKKMFESES to CWRKNIEEKSGMEGRKKMFESES, the protein stability index falls from 2.24 to 1.75.

Going from IWRKNIEEKSGMEGRKKMFESES to FWRKNIEEKSGMEGRKKMFESES, the protein stability index falls from 2.63 to 1.9.

Going from TWRKNIEEKSGMEGRKKMFESES to NWRKNIEEKSGMEGRKKMFESES, the protein stability index rises from 2.37 to 2.79.

Compared with GWRKNIEEKSGMEGRKKMFESES, HWRKNIEEKSGMEGRKKMFESES is lower in protein stability index: 2.28 for the first, 2.27 for the second.

Going from WWRKNIEEKSGMEGRKKMFESES to AWRKNIEEKSGMEGRKKMFESES, the protein stability index falls from 3.07 to 2.91.

Compared with DWRKNIEEKSGHEGRKKMFESES, DWRKNIEEKSGDEGRKKMFESES is higher in protein stability index: 2.42 for the first, 2.52 for the second.

Compared with DWRKNIEEKSGEEGRKKMFESES, DWRKNIEEKSGIEGRKKMFESES is higher in protein stability index: 2.47 for the first, 3.01 for the second.

Going from DWRKNIEEKSGLEGRKKMFESES to DWRKNIEEKSGNEGRKKMFESES, the protein stability index rises from 2.13 to 2.89.

First: DWRKNIEEKSGKEGRKKMFESES
Second: DWRKNIEEKSGFEGRKKMFESES
The protein stability index of the first is higher: 2.72 for the first, 2.38 for the second.

Compared with DWRKNIEEKSGPEGRKKMFESES, DWRKNIEEKSGCEGRKKMFESES is higher in protein stability index: 1.96 for the first, 2.71 for the second.

Compared with DWDKNIEEKSGMEGRKKMFESES, DWHKNIEEKSGMEGRKKMFESES is higher in protein stability index: 2.63 for the first, 2.88 for the second.

First: DWAKNIEEKSGMEGRKKMFESES
Second: DWEKNIEEKSGMEGRKKMFESES
The protein stability index of the first is lower: 2.09 for the first, 2.48 for the second.

Going from DWQKNIEEKSGMEGRKKMFESES to DWGKNIEEKSGMEGRKKMFESES, the protein stability index falls from 2.84 to 1.61.

Going from DWVKNIEEKSGMEGRKKMFESES to DWLKNIEEKSGMEGRKKMFESES, the protein stability index falls from 2.08 to 1.74.

Going from DWFKNIEEKSGMEGRKKMFESES to DWYKNIEEKSGMEGRKKMFESES, the protein stability index falls from 2.06 to 1.64.

Going from DWIKNIEEKSGMEGRKKMFESES to DWPKNIEEKSGMEGRKKMFESES, the protein stability index falls from 2.19 to 1.84.

Compared with DWTKNIEEKSGMEGRKKMFESES, DWKKNIEEKSGMEGRKKMFESES is lower in protein stability index: 2.48 for the first, 2.34 for the second.

Compared with DWSKNIEEKSGMEGRKKMFESES, DWNKNIEEKSGMEGRKKMFESES is higher in protein stability index: 2.04 for the first, 2.48 for the second.

Going from DWMKNIEEKSGMEGRKKMFESES to DWRKNIEELSGMEGRKKMFESES, the protein stability index falls from 3.28 to 2.51.

Going from DWRKNIEEFSGMEGRKKMFESES to DWRKNIEEQSGMEGRKKMFESES, the protein stability index falls from 2.44 to 1.68.

Compared with DWRKNIEEYSGMEGRKKMFESES, DWRKNIEEISGMEGRKKMFESES is higher in protein stability index: 1.93 for the first, 2.39 for the second.

Compared with DWRKNIEESSGMEGRKKMFESES, DWRKNIEEWSGMEGRKKMFESES is lower in protein stability index: 3.35 for the first, 2.34 for the second.

Compared with DWRKNIEENSGMEGRKKMFESES, DWRKNIEECSGMEGRKKMFESES is lower in protein stability index: 2.58 for the first, 1.84 for the second.

Going from DWRKNIEETSGMEGRKKMFESES to DWRKNIEEESGMEGRKKMFESES, the protein stability index falls from 2.54 to 2.13.

First: DWRKNIEEHSGMEGRKKMFESES
Second: DWRKNIEEPSGMEGRKKMFESES
The protein stability index of the first is higher: 2.4 for the first, 1.75 for the second.

In the case of DWRKNIEEDSGMEGRKKMFESES, the protein stability index is reported as 1.73.
